Laboratory results from paper PMC6602975.

Key:
Assay in all cases: EMSA
[1] = test system: Orc1 BAH Lid swap (Saccharomyces cerevisiae); details: 10 mM Tris pH 7.5, 50 mM NaCl, 2.5% glycerol, 1 mM DTT, room temperature 30 min, 25 or 50 nM nucleosome, native PAGE 0.2x TBE
[2] = test system: T1, Orc1 BAH WT (Saccharomyces cerevisiae); details: apparent Kd, 10 mM Tris pH 7.5, 50 mM NaCl, 2.5% glycerol, 1 mM DTT, room temperature 30 min, 25 or 50 nM nucleosome, native PAGE 0.2x TBE
T1 sequence: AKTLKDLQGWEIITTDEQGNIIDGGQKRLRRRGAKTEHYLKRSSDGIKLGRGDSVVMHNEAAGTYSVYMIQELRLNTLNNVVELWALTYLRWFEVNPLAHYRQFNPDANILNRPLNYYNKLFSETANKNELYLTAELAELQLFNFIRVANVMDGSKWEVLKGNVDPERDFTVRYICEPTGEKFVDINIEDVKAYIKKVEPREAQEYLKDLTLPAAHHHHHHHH

[3] = test system: Sir3 BAH D205N (Saccharomyces cerevisiae); details: apparent Kd, 10 mM Tris pH 7.5, 50 mM NaCl, 2.5% glycerol, 1 mM DTT, room temperature 30 min, 25 or 50 nM nucleosome, native PAGE 0.2x TBE
[4] = test system: Sir3 BAH D205Q (Saccharomyces cerevisiae); details: apparent Kd, 10 mM Tris pH 7.5, 50 mM NaCl, 2.5% glycerol, 1 mM DTT, room temperature 30 min, 25 or 50 nM nucleosome, native PAGE 0.2x TBE
[5] = test system: Sir3 BAH Lid D205Q (Saccharomyces cerevisiae); details: apparent Kd, 10 mM Tris pH 7.5, 50 mM NaCl, 2.5% glycerol, 1 mM DTT, room temperature 30 min, 25 or 50 nM nucleosome, native PAGE 0.2x TBE
[6] = test system: Orc1 BAH A2P (Saccharomyces cerevisiae); details: 10 mM Tris pH 7.5, 50 mM NaCl, 2.5% glycerol, 1 mM DTT, room temperature 30 min; 25 or 50 nM nucleosome; native PAGE 0.2x TBE
[7] = test system: Orc1 BAH E95K (Saccharomyces cerevisiae); details: apparent Kd; 10 mM Tris pH 7.5, 50 mM NaCl, 2.5% glycerol, 1 mM DTT, room temperature 30 min; 25 or 50 nM nucleosome; native PAGE 0.2x TBE
[8] = test system: Orc1 BAH L79I (Saccharomyces cerevisiae); details: 10 mM Tris pH 7.5, 50 mM NaCl, 2.5% glycerol, 1 mM DTT, room temperature 30 min; 25 or 50 nM nucleosome; native PAGE 0.2x TBE
[9] = test system: Orc1 BAH Q205D (Saccharomyces cerevisiae); details: apparent Kd; 10 mM Tris pH 7.5, 50 mM NaCl, 2.5% glycerol, 1 mM DTT, room temperature 30 min; 25 or 50 nM nucleosome; native PAGE 0.2x TBE
[10] = test system: Orc1 BAH R202E (Saccharomyces cerevisiae); details: 10 mM Tris pH 7.5, 50 mM NaCl, 2.5% glycerol, 1 mM DTT, room temperature 30 min; 25 or 50 nM nucleosome; native PAGE 0.2x TBE
[11] = histone H4 K16ac (genetically encoded), DNA unmodified

Substance: H4K16Q nucleosome (147 bp 601)
- Kd ([1]; histone H4 K16Q (acetyl mimic), DNA unmodified): 1.4 µM

Substance: H4K16ac nucleosome (147 bp 601)
- Kd ([1]; apparent Kd, histone H4 K16ac (genetically encoded), DNA unmodified): 3.7 µM
- Kd [2, 11]: 1.5 µM
- Kd [3, 11]: 0.81 µM
- Kd [4, 11]: 1.2 µM
- Kd [5, 11]: 1.7 µM

Substance: WT nucleosome (147 bp 601, unmodified)
- Kd [6]: 1.9 µM
- Kd [7]: 4.4 µM
- Kd [8]: 0.4 µM
- Kd [1]: 0.7 µM
- Kd ([1]; apparent Kd, comparison set with H4K16ac): 0.6 µM
- Kd [9]: 5.1 µM
- binding signal (fold decrease in affinity vs Orc1 WT) [10]: 4.9
- Kd [2]: 1.3 µM
- Kd ([2]; reference set for mutants): 1.1 µM
- Kd [3]: 0.22 µM
- Kd [4]: 0.3 µM
- Kd [5]: 1 µM
